For series [1], the target named is T1, PepX (X-prolyl dipeptidyl aminopeptidase) (Lactobacillus helveticus, UniProt Q59485).
T1 construct: His-tagged recombinant full-length PepX (homodimer)
T1 sequence (Q59485 1-793): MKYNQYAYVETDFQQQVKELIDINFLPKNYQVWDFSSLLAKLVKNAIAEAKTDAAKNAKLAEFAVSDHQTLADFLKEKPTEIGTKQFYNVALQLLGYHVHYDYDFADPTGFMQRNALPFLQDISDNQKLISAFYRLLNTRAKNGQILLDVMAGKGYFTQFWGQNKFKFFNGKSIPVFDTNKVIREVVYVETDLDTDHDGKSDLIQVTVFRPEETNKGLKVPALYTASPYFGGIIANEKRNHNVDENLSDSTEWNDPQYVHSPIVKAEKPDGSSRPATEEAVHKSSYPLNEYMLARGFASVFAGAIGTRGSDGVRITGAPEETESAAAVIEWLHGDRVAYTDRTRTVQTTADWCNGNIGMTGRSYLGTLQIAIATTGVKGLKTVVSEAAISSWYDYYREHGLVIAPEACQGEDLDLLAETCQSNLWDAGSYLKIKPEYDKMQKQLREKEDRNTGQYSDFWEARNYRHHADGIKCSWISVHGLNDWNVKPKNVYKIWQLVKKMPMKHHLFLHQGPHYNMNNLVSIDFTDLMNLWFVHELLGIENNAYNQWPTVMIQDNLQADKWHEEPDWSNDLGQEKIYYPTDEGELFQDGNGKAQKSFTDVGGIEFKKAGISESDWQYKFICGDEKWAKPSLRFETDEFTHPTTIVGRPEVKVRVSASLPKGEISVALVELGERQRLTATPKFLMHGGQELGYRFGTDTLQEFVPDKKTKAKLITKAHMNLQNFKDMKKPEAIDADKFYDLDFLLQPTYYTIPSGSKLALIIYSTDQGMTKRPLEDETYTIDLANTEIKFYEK
Briefly: inhibition of H-Ala-Pro-pNA hydrolysis; […] residual activity at […], […] at […]. The format is biochemical.

Series [2] has as its target T1, PepX (X-prolyl dipeptidyl aminopeptidase). Briefly: product inhibition kinetics with H-Ala-Pro-pNA, Lineweaver-Burk. The format is biochemical.
In series [3] the target is T2, PepN (general aminopeptidase N) (Lactobacillus helveticus, UniProt S4THV9).
T2 construct: His-tagged recombinant full-length PepN (monomer)
T2 sequence (S4THV9 1-844): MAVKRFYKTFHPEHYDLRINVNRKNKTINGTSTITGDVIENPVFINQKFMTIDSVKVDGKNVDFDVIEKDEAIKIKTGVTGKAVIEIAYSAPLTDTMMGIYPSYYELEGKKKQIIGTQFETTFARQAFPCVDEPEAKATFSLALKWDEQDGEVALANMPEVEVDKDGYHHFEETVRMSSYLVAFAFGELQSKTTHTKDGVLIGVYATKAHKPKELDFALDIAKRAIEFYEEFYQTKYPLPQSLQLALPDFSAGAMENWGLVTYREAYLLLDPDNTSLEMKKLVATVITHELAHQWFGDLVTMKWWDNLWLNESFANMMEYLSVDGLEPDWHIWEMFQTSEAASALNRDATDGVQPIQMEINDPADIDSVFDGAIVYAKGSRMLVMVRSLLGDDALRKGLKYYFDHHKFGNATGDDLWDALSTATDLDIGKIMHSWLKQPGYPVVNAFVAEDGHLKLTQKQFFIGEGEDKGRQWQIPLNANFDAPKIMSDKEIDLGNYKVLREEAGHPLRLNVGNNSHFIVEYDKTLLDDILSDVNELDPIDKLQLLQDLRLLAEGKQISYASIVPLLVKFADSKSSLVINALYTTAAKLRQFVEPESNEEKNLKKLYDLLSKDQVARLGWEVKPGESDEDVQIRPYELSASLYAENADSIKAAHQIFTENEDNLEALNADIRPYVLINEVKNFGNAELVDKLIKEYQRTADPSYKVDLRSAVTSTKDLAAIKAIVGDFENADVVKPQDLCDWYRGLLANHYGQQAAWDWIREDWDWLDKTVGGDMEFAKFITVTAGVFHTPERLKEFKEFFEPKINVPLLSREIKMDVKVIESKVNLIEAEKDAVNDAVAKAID
Briefly: product inhibition of H-Ala-pNA hydrolysis; […] residual activity at […]. The format is biochemical. As to conditions: read-out: % residual activity at 10 mM.

For series [4], the target named is T2, PepN (general aminopeptidase N). The description is as above. The format is biochemical. As to conditions: read-out: % residual activity at 10 mM. This is another data set of the same source.
Substrate in series [5]: C[C@H](N)C(=O)N1CCC[C@H]1C(=O)Nc1ccc([N+](=O)[O-])cc1
Briefly: enzyme kinetics, p-nitroaniline release, Hanes plot; Km. Type of series: biochemical, Lactobacillus helveticus.

Substrate in series [6]: C[C@H](N)C(=O)Nc1ccc([N+](=O)[O-])cc1
Briefly: purified protein. As to conditions: Zn2+. The format is biochemical, Lactobacillus helveticus.

Substrate in series [7]: NCCCC[C@H](N)C(=O)Nc1ccc([N+](=O)[O-])cc1
Briefly: purified protein. The format is biochemical, Lactobacillus helveticus. The settings on record: Zn2+.

Substrate in series [8]: CC(C)C[C@H](N)C(=O)Nc1ccc([N+](=O)[O-])cc1
Briefly: purified protein. Type of series: biochemical, Lactobacillus helveticus. The settings on record: Zn2+.

Substrate in series [9]: N[C@@H](Cc1ccccc1)C(=O)Nc1ccc([N+](=O)[O-])cc1
Briefly: purified protein. The format is biochemical, Lactobacillus helveticus. As to conditions: Zn2+.

Substrate in series [10]: N=C(N)NCCC[C@H](N)C(=O)Nc1ccc([N+](=O)[O-])cc1
Briefly: purified protein. As to conditions: Zn2+.

The values below come from PMC3716637, “Characterization of the Recombinant Exopeptidases PepX and PepN from Lactobacillus helveticus ATCC 12046 Important for Food Protein Hydrolysis” (PLoS ONE, 2013).

Read-outs that look alike come from different tables or passages of the source. Residues, ends and D or L forms follow the SMILES beside them.

As to `O=S(=O)(F)Cc1ccccc1` [PMSF], in [1], the “% residual activity at 10 mM” value was 11.

On to `N[C@@H](Cc1ccccc1)C(=O)N1CCC[C@H]1C(=O)O` [H-L-Phe-L-Pro-OH] (H-Phe-Pro-OH), for which, in [2], the Ki amounted to 30.1 mM.

For `N=C(N)NCCC[C@H](N)C(=O)O` [L-Arg], the remaining activity at 10000 µM in series [3] is 19%.

For the molecule `N[C@@H](Cc1ccccc1)C(=O)O` [L-Phe], the remaining activity at 10000 µM in series [4] came to 24%.

B1: PepX (X-prolyl dipeptidyl aminopeptidase) (Lactobacillus helveticus) (protein)
chain: MKYNQYAYVETDFQQQVKELIDINFLPKNYQVWDFSSLLAKLVKNAIAEAKTDAAKNAKLAEFAVSDHQTLADFLKEKPTEIGTKQFYNVALQLLGYHVHYDYDFADPTGFMQRNALPFLQDISDNQKLISAFYRLLNTRAKNGQILLDVMAGKGYFTQFWGQNKFKFFNGKSIPVFDTNKVIREVVYVETDLDTDHDGKSDLIQVTVFRPEETNKGLKVPALYTASPYFGGIIANEKRNHNVDENLSDSTEWNDPQYVHSPIVKAEKPDGSSRPATEEAVHKSSYPLNEYMLARGFASVFAGAIGTRGSDGVRITGAPEETESAAAVIEWLHGDRVAYTDRTRTVQTTADWCNGNIGMTGRSYLGTLQIAIATTGVKGLKTVVSEAAISSWYDYYREHGLVIAPEACQGEDLDLLAETCQSNLWDAGSYLKIKPEYDKMQKQLREKEDRNTGQYSDFWEARNYRHHADGIKCSWISVHGLNDWNVKPKNVYKIWQLVKKMPMKHHLFLHQGPHYNMNNLVSIDFTDLMNLWFVHELLGIENNAYNQWPTVMIQDNLQADKWHEEPDWSNDLGQEKIYYPTDEGELFQDGNGKAQKSFTDVGGIEFKKAGISESDWQYKFICGDEKWAKPSLRFETDEFTHPTTIVGRPEVKVRVSASLPKGEISVALVELGERQRLTATPKFLMHGGQELGYRFGTDTLQEFVPDKKTKAKLITKAHMNLQNFKDMKKPEAIDADKFYDLDFLLQPTYYTIPSGSKLALIIYSTDQGMTKRPLEDETYTIDLANTEIKFYEK
notes: His-tagged recombinant full-length PepX (homodimer)
For the molecule B1, in series [5], the Km is on record as 1.3 mM.

B2: PepN (general aminopeptidase N) (Lactobacillus helveticus) (protein)
chain: MAVKRFYKTFHPEHYDLRINVNRKNKTINGTSTITGDVIENPVFINQKFMTIDSVKVDGKNVDFDVIEKDEAIKIKTGVTGKAVIEIAYSAPLTDTMMGIYPSYYELEGKKKQIIGTQFETTFARQAFPCVDEPEAKATFSLALKWDEQDGEVALANMPEVEVDKDGYHHFEETVRMSSYLVAFAFGELQSKTTHTKDGVLIGVYATKAHKPKELDFALDIAKRAIEFYEEFYQTKYPLPQSLQLALPDFSAGAMENWGLVTYREAYLLLDPDNTSLEMKKLVATVITHELAHQWFGDLVTMKWWDNLWLNESFANMMEYLSVDGLEPDWHIWEMFQTSEAASALNRDATDGVQPIQMEINDPADIDSVFDGAIVYAKGSRMLVMVRSLLGDDALRKGLKYYFDHHKFGNATGDDLWDALSTATDLDIGKIMHSWLKQPGYPVVNAFVAEDGHLKLTQKQFFIGEGEDKGRQWQIPLNANFDAPKIMSDKEIDLGNYKVLREEAGHPLRLNVGNNSHFIVEYDKTLLDDILSDVNELDPIDKLQLLQDLRLLAEGKQISYASIVPLLVKFADSKSSLVINALYTTAAKLRQFVEPESNEEKNLKKLYDLLSKDQVARLGWEVKPGESDEDVQIRPYELSASLYAENADSIKAAHQIFTENEDNLEALNADIRPYVLINEVKNFGNAELVDKLIKEYQRTADPSYKVDLRSAVTSTKDLAAIKAIVGDFENADVVKPQDLCDWYRGLLANHYGQQAAWDWIREDWDWLDKTVGGDMEFAKFITVTAGVFHTPERLKEFKEFFEPKINVPLLSREIKMDVKVIESKVNLIEAEKDAVNDAVAKAID
notes: His-tagged recombinant full-length PepN (monomer)
Consider B2, for which the Km in the series “purified protein [6]” is given as 0.43 mM; in the series “purified protein [7]” it was 0.14 mM; in “purified protein [8]”, 0.17 mM; in “purified protein [9]”, 0.15 mM; in “purified protein [10]” it was 0.14 mM. Also, the Vmax in “purified protein [6]” was 46100 µM/min; in “purified protein [7]”, 93100 µM/min; in the series “purified protein [8]”, 51100 µM/min; in “purified protein [9]”, 15200 µM/min.
